How the values were obtained:
[1] = test system: MS2 coat protein; assay: apparent KD of MS2 coat protein; higher = weaker reporter binding; conditions: Eterna round: R101
Description: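 RNA-MaP: designed FMN/MS2 RNA switches (84 nt design region) are transcribed on-chip within common flanks and titrated with SNAP-549-labelled MS2 coat protein (about 1-3000 nM) in 100 mM Tris pH 7.5, 80 mM KCl, 4 mM MgCl2, without or with 200 uM FMN. Median apparent KD per design; activation ratio = KD,OFF / KD,ON.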

[2] = test system: MS2 coat protein; assay: apparent KD of MS2 coat protein, switch OFF state (with FMN for OFF switches, without FMN for ON switches); designed switch direction (-1 OFF switch, 1 ON switch): 1; higher = weaker reporter binding; conditions: FMN input: 0 or 200 uM; Eterna round: R93 (includes R88 designs)
How it was run: (§1)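 Designed RNA switches, transcribed on-chip from Illumina sequencing clusters, were titrated with SNAP-549-labelled MS2 coat protein from 0.7 or 1.5 nM to 3 µM in twofold steps. The solution was 100 mM Tris-HCl pH 7.5, 80 mM KCl, 4 mM MgCl2, with constant ligand or without it. Apparent KD is the median over each design's normalised cluster binding-curve fits.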

[3] = test system: MS2 coat protein; assay: apparent KD of MS2 coat protein, switch ON state; designed switch direction (-1 OFF switch, 1 ON switch): 1; higher = weaker reporter binding; conditions: FMN input: 0 or 200 uM; Eterna round: R93 (includes R88 designs)
How it was run: as §1

Row | Sequence | apparent KD of MS2 coat protein ([1]; input ligand: FMN 200 uM) [nM] | apparent KD of MS2 coat protein ([1]; input ligand: none) [nM] | apparent KD of MS2 coat protein [2] [nM] | apparent KD of MS2 coat protein [3] [nM]
1 | AAAAUGAUUUUAGGAUAUGACUCCGAAACGGAGUCAGAAGGAGGAUCACCCUUUCAAAGCUCAGCGUCGAAAGACGCUGAGCAA [#SharedSequence - ExNG1-20] (puzzle (switch architecture): Exclusion NG 1) | 1200 | 201 |  | 
2 | AAAUGAUAUCAGAAGGCGUGGACGAAACGUCCACGAGGAUAUGAGGAUCACCCAUGUCAGGUCAGCCUGCAAAGCAGGCUGACC [#SharedSequence - IExNG1: 7-4] (puzzle (switch architecture): Inverted Exclusion NG 1) | 562 | 50.3 |  | 
3 | AAGCACGAAGAUUAUUAUGAAUAAACAUGAGGAUCACCCAUGUAGGAUAUCGACUCGAAUAGAGUCGAGAAGGACAAAACGUGC [#BasePairInsertion1E] (puzzle (switch architecture): Exclusion NG 3) | 11.6 | 6.96 |  | 
4 | AAGUGAAAUCAGAAGGGCUCCAGCAAAGCUGGAGCAGGAUAUGAGGAUCACCCAUGUCACCUGACGGUCGAAACGACCGUCAGG [#SharedSequence - IExNG1: 6-2] (puzzle (switch architecture): Inverted Exclusion NG 1) | 521 | 56.9 |  | 
5 | ACAGGUCGUGAGAAGGCGGAAAGCACCGUCGAAAGACGGUGCAAUUAAGAUCUUCGAGGAUCACCCGAGGAUAUCACGACCUGA [#SharedSequence - IExNG2: 15] (puzzle (switch architecture): Inverted Exclusion NG 2) | 654 | 75.1 |  | 
6 | AGGAGAAAUGUAGGAUAUAUAUAUAUAUAUAGGCAAAGCGUAUAUAUAUAUAUAGAAGGACAUGAGGAUCACCCAUGUUUCCCU [#Lowering the energy 12] (puzzle (switch architecture): Small Loop Exclusion NG 1) | 9.42 | 10.2 |  | 
7 | AGUGUCAUCGAGAAGGCCUCAAAAUGAGGAUCACCCAUGUUGUAAUAUGGGAGGAUAUCGAUGAUACAGCUACGUUUCGUAGCA [salish99_InSLSSNG1_020 #HINGE] (puzzle (switch architecture): Inverted Small Loop Same State NG 1) | 58.9 | 98.3 |  | 
8 | CAGUCGACCAUAACAAGGUCGACUGACUUCUGAGGAUCACCCAGAAGGCGUCACCUAAUAGGUGACGAGGAUAUGGAGUGUAAA [#SharedSequence IExNG# - 7] (puzzle (switch architecture): Inverted Exclusion NG 3) | 92.7 | 32 |  | 
9 | CCUGCACUUCAAGGAUAUCCAGUCGUUUCGACUGGAGAAGGUGAGGAUCACCCAUCUAGCCUGACGUUUGUCAGGCAUGCAGGU [#AddUracilToBrourdLoops 7 - Jieux - Exclusion NG1] (puzzle (switch architecture): Exclusion NG 1) | 81.7 | 84.3 |  | 
10 | CGCGAACAGUUUUAAAAGAGGAUCACCCAUGUGGACUCAUGGUAGGAUAUCGGGAAGGAGGAAACCGAGAAGGGCUGGUGAGCC [salish99_SSNG3_019 #HINGE] (puzzle (switch architecture): Same State NG 3) | 18 | 37.5 |  | 
11 | CGCUAUGAUGGGUGUAAUAGAGCAUAGGAUAUGCUUGUACAUGAGGAUCACCCAUGUUAUAUUUUGCAGAAGGGUGCAUUUGCG [JR #DistanceFar #Hairpin #NP SLSSNG3 Sub072] (puzzle (switch architecture): Small Loop Same State NG 3) | 255 | 460 |  | 
12 | CUUACUUUGUAGAAGGGUGACAUGAGGAUCACCCAUGUGCGUCGCCUGAAAGACCAGGGUACGCCACAGGAUAUACAAAGUAAG [Titerexe] (puzzle (switch architecture): Inverted Same State NG 2) | 128 | 28.4 |  | 
13 | GAACCACAUGAGGAUCACCCAUGUCUAAGAAAUUAAGGAUAUGCACAAAAGGAAAUAACUGCAGAAGGUAAACGAA [Redo] |  |  | 33.1 | 25.1
14 | GAGGACAUAGUACAGGAUAUAUGAAUAGUUACAUGAGGAUCACCCAUGUGCAUUUAUAUGCGCACAUAGAAGGGUGGUAGUUAUC [SameState2 Malc#29] |  |  | 33.5 | 38.8
15 | GAUAAACAUGAGGAUCACCCAUGUAGAAAUAUGGGAGGAUAUACAAAGACGAAAGUCAAAGUAGAAGGCCUAAAAG [77%, Mat - Mod of Eli - With 1 more U's] |  |  | 55.5 | 24.4
16 | GCACCACAUGAGGAUCACCCAUGUAAAACGUAGCAAGGAUAUGGGCACGGAUAAUUCCGAUCAGAAGGUGUAACGC [Gemaditera] |  |  | 35.2 | 105
17 | GCAGCUAAUGCAGGAUAUCAGCACGUGUAGUGCUGAGAAGGGCACAUGAGGAUACCGACUGUGAUCAAUUAAUAUUAAUGCUGC [salish99#hingeEx3_55-58_003] (puzzle (switch architecture): Exclusion NG 1) | 6.87 | 9.43 |  | 
18 | GGAAAUAACAGAGAGGAUAUCCAAAGGAAAACAUGAGGAUCACCCAUGUAAAAGGAAGGAAAUUGGGAGAAGGCUCAAAAUAGAA [salish99-ss2-019] |  |  | 26.7 | 15.1

Row | Sequence | apparent KD of MS2 coat protein ([1]; input ligand: FMN 200 uM) [nM] | apparent KD of MS2 coat protein ([1]; input ligand: none) [nM] | apparent KD of MS2 coat protein [2] [nM] | apparent KD of MS2 coat protein [3] [nM]
19 | GGAGCUCCAGCGCAGGAUAUCGACCCAGGGACAUGAGGAUCACCCAUGUUCCAAAAAAAAUGGGUCGAGAAGGGCGUUGGAGAGCC [SAmeState2-III] |  |  | 12.2 | 11
20 | GGGAAGAACAGAGAGGAUAUCCAAAGGAAAACAUGAGGAUCACCCAUGUAAAAGGAAGGAAAUUGGGAGAAGGCUCAAAAGAGAA [salish99-ss2-023] |  |  | 36.4 | 32.5
21 | GGGAGACAUGAGGAUCACCCAUGUGAAAACGUGUCAGGAUAUGUAUGGAAACCAUACUGUACAGAAGGGACUUGUC [Quintus Rammius Martialis] |  |  | 89.2 | 54.8
22 | GGGAGACAUGAGGAUCACCCAUGUGAGAAGAGGCGAGGAUAUCGAAAAAAAAAAAAAAAACGAGAAGGCGCGAGAA [salish99-SS1-003] |  |  | 38 | 23.3
23 | GGGAGACAUGAGGAUCACCCAUGUGAGAAGAGGCGAGGAUAUCGAAAGAAAGAAGAGAAACGAGAAGGCGCGAGAC [salish99-SS1-061] |  |  | 45.1 | 30.4
24 | GGGAGGAAGAGAGAGGAUAUCCAAAGGAAAACAUGAGGAUCACCCAUGUAAAAGGUAGGAAAUUGGGAGAAGGCUCAAAAGAGGC [salish99-ss2-042] |  |  | 46.6 | 19.4
25 | GGGAGGAAGAGAGAGGAUAUCCAAAGGAAAACAUGAGGAUCACCCAUGUAAAAGGUAGGAAAUUGGGAGAAGGCUCAAGAGAAGG [salish99-ss2-050] |  |  | 26.6 | 18.2
26 | GUGAGGAAGAGAGAGGAUAUCCAAAGGAAAACAUGAGGAUCACCCAUGUAAAAGGUAGGAAAUUGGGAGAAGGCUCAAGAGAGAG [salish99-ss2-067] |  |  | 34.7 | 40.2
27 | UAAAAACAUGAGGAUCACCCAUGUAGAAACAUGGGAGGAUAUACAAAGACGAAAGUCAAAGUAGAAGGCCUAAAAU [Mat - Same State 1 - Mod - D169] |  |  | 43.4 | 51.4
28 | UAACAACAUGAGGAUCACCCAUGUCAAAUAAAUCGAGGAUAUGGGACGCAAGACGUCUUACCAGAAGGCGAAACAA [Leoratin] |  |  | 70.9 | 25.1
29 | UAACUACAUGAGGAUCACCCAUGUCAAAUAAAUCGAGGAUAUGGGACGCAAAACGUCUGACCAGAAGGCGAAACAA [Maquriceri] |  |  | 132 | 27.3
30 | UAAUAAUAAACCAAGGAUAUGGAGUUUCCAACAUGAGGAUCACCCAUGUUUAGCAUGAAAUCGAUCCAGAAGGUGGAGCCAAAUA [JR_SS002_Sub1005] |  |  | 102 | 54.1
31 | UACAGACAUGAGGAUCACCCAUGUAGAAUUAUGGGAGGAUAUACAAAGACGAGAGUCAGAGUAGAAGGCCUAGGAU [salish99-ss1-164] |  |  | 61.3 | 23.5
32 | UAGAGGAAGAGAGAGGAUAUCCAAAGGAAAACAUGAGGAUCACCCAUGUAAAAGGUAGGAAAUUGGGAGAAGGCUCAAGAGAGAG [salish99-ss2-062] |  |  | 30.3 | 30.9
33 | UAGGGAACAGGGUAGGAUAUGCAUGGUCGUACAUGAGGAUCACCCAUGUAGCCUAGAAAAUAAAUGCAGAAGGACCAAAAGAAAA [Ononmaesra] |  |  | 48.3 | 16.5
34 | UGAAAGGAGAGAGAGGAUAUCCAAAGGAAAACAUGAGGAUCACCCAUGUAGAAGGUAGGAAAUUGGGAGAAGGCUCAAGAAAGAG [salish99-ss2-139] |  |  | 35.4 | 50.7
35 | UGGAGACAUGAGGAUCACCCAUGUAGAAGGAUGGGAGGAUAUACAAAGACGAGAGUCAGAGUAGAAGGCCUAGGAG [salish99-ss1-188] |  |  | 42.8 | 31.3
